Reference: US8642565B2, “Increase of immune response and targeting by antigens and/or drug linkage” (Wittycell, priority 2007, dated 2014)

B1: OVA covalently linked to PBS-6: Examples 2-4: ovalbumin peptide covalently linked to PBS-6 (Example 2 peptide VSGLEQLESIINFEKLTEWTS) (conjugate, UniProt P01012 2-386, looked up)
Ovalbumin: GSIGAASMEFCFDVFKELKVHHANENIFYCPIAIMSALAMVYLGAKDSTRTQINKVVRFDKLPGFGDSIEAQCGTSVNVHSSLRDILNQITKPNDVYSFSLASRLYAEERYPILPEYLQCVKELYRGGLEPINFQTAADQARELINSWVESQTNGIIRNVLQPSSVDSQTAMVLVNAIVFKGLWEKAFKDEDTQAMPFRVTEQESKPVQMMYQIGLFRVASMASEKMKILELPFASGTMSMLVLLPDEVSGLEQLESIINFEKLTEWTSSNVMEERKIKVYLPRMKMEEKYNLTSVLMAMGITDVFSSSANLSGISSAESLKISQAVHAAHAEINEAGREVVGSAEAGVDAASVSEEFRADHPFLFCIKHIATNAVLFFGRCVSP
modifications: covalently linked to glycolipid PBS-6
B2: OVA covalently linked to PBS-14 (conjugate, UniProt P01012 2-386, looked up)
Ovalbumin: B1 Ovalbumin
modifications: covalently linked to glycolipid PBS-14
B3: OVA covalently linked to PBS-57 (conjugate, UniProt P01012 2-386, looked up)
Ovalbumin: B1 Ovalbumin
modifications: covalently linked to glycolipid PBS-57

Legend:
[1] = tested on: SIINFEKL (SEQ ID NO:1) induced CD8+ T cell response; SINFEKL-loaded targets; test: VITAL in vivo cytotoxicity assay, intravenous immunization (Example 1); parameters: species or system C57BI/6J CD45.2 female mice; conditions: 1 μg to 100 μg of Ova peptide alone, day 0, read out day 11
[2] = tested on: OVA specific IgG1 antibodies; test: Ovalbumin-specific IgG1 antibody titer after immunization (Example 4); type: in vivo, mice; conditions: 1 μg conjugate, intramuscular route, day 0 and day 14, samples 14 days after second immunization; compared with 50 μg of OVA alone (FIG. 4)
Protocol: (§1) The aim of this study was to evaluate IgG1 and IgG2a antibody response following immunization with ovalbumin in combination with different adjuvant covalently linked.
(§2) The sera tested were as follows:
(§3) Group 1; 6 mice immunized with 500 μg of ova protein with CFA/IFA (Positive control)
(§4) Group 2: 6 mice immunized with 50 μg of long ova peptide of sequence […] (SEQ ID NO:3; amino acids 316 to 338 of ovalbumin)
(§5) Group 3: 6 mice immunized with 50 μg of short ova peptide of sequence KISQAVHAAHA (SEQ ID NO:4; amino acids 323 to 333 of ovalbumin)
(§6) Group 4: 6 mice immunized with 1 μg PBS-6-OVA
(§7) Group 5: 6 mice immunized with 1 μg PBS-14-OVA
(§8) Group 6: 6 mice immunized with 1 μg PBS-57-OVA
(§9) All mice were immunized by intramuscular route at day 0 and day 14. All samples were collected 14 days following the second immunization and the IgG1 and IgG2a titers specific of ovalbumin were evaluated.

[3] = tested on: SIINFEKL (SEQ ID NO:1) induced CD8+ T cell response; test: VITAL in vivo cytotoxicity assay, intramuscular immunization, OVA (Example 3); parameters: species or system C57BI/6J CD45.2 female mice; conditions: 1 μg conjugate, day 0, compared with mice treated with 50 μg of OVA alone (FIG. 3)
Protocol: Sixty-nine 9 week-old C57BI/6J CD45.2 female mice were used for immunisation. They were split into 14 groups: groups 1 to 5 included 3 animals, and groups 6 to 14 included 6 animals.
The in vivo cytotoxicity of SIINFEKL (SEQ ID NO:1) induced CD8^+ T cell response was evaluated by VITAL assay as described in Example 1.
The short ovalbumin peptide consists in the SIINFEKL sequence (SEQ ID NO:1; amino acids 257 to 264 of ovalbumin), the long ovalbumin peptide consists in the […] sequence (SEQ ID NO:2; amino acids 250 to 269 of ovalbumin) and the glycolipids used are PBS-6, PBS-14 and PBS-57.
The mice were vaccinated by intramuscular route at day 0 with the following solutions according to the different groups:
The read out was as described in Example 1.

[4] = tested on: OVA specific IgG2a antibodies; test: Ovalbumin-specific IgG2a antibody titer after immunization (Example 4); type: in vivo, mice; conditions: 1 μg conjugate, intramuscular route, day 0 and day 14, samples 14 days after second immunization; compared with 50 μg of OVA alone (FIG. 5)
Protocol: as §1, §2, §3, §4, §5, §6, §7, §8, §9

[5] = tested on: SIINFEKL-H2K^b specific CD8+ cells; test: Detection of SIINFEKL specific CD8+ cells by FACS, H-2 Kb SIINFEKL pentamer and CD8 co-staining (Example 2); type: in vivo, C57BI/6J CD45.2 female mice; conditions: 1 μg conjugate, intramuscular route, day 0 and 14; compared with mice treated with 50 μg of OVA alone (FIG. 2)
Excerpt: Forty-eight 9 week-old C57BI/6J CD45.2 female mice were used for immunisation. They were split into 9 groups: groups 1 and 2 included 3 animals and groups 3 to 9 included six animals.
The ovalbumin peptide consists in the […] sequence (SEQ ID NO:2) and the glycolipids used are PBS-6, PBS-14 and PBS-57.
The mice were vaccinated by intramuscular route at day 0 and 14 with the following solutions according to the different groups:
Detection of SIINFEKL specific CD8+ cells was monitored by FACS following H-2 Kb SIINFEKL pentamer and CD8 co-staining.

| Molecule | antigen-specific lysis (percent specific lysis) [1] | titer of IgG1 specific of ovalbumin [2] | percentage of SIINFEKL-specific cytolytic activity in the blood [3] | titer of IgG2a specific of ovalbumin [4] | percentage of SIINFEKL-H2K^b specific CD8+ in the blood [5] |
| --- | --- | --- | --- | --- | --- |
| Ova peptide: ovalbumine peptide of SIINFEKL sequence (SEQ ID NO:1), amino-acids 257-264 of ovalbumine [reference compound] | no antigen-specific lysis |  |  |  |  |
| B1 |  | higher titers | stronger percentage | higher titers | stronger percentage |
| B2 |  | higher titers | stronger percentage | higher titers | stronger percentage |
| B3 |  | higher titers | stronger percentage | higher titers | stronger percentage |
